Data on three variants can be found in IntAct's records for PubMed 23007647.

The chains are these.
B1: Protein HEG homolog 1 (Homo sapiens), Q9ULI3 (parent)
chain: MASPRASRWPPPLLLLLLPLLLLPPAAPGTRDPPPSPARRALSLAPLAGAGLELQLERRPEREPPPTPPRERRGPATPGPSYRAPEPGAATQRGPSGRAPRGGSADAAWKHWPESNTEAHVENITFYQNQEDFSTVSSKEGVMVQTSGKSHAASDAPENLTLLAETADARGRSGSSSRTNFTILPVGYSLEIATALTSQSGNLASESLHLPSSSSEFDERIAAFQTKSGTASEMGTERAMGLSEEWTVHSQEATTSAWSPSFLPALEMGELTTPSRKRNSSGPDLSWLHFYRTAASSPLLDLSSSSESTEKLNNSTGLQSSSVSQTKTMHVATVFTDGGPRTLRSLTVSLGPVSKTEGFPKDSRIATTSSSVLLSPSAVESRRNSRVTGNPGDEEFIEPSTENEFGLTSLRWQNDSPTFGEHQLASSSEVQNGSPMSQTETVSRSVAPMRGGEITAHWLLTNSTTSADVTGSSASYPEGVNASVLTQFSDSTVQSGGSHTALGDRSYSESSSTSSSESLNSSAPRGERSIAGISYGQVRGTAIEQRTSSDHTDHTYLSSTFTKGERALLSITDNSSSSDIVESSTSYIKISNSSHSEYSSFFHAQTERSNISSYDGEYAQPSTESPVLHTSNLPSYTPTINMPNTSVVLDTDAEFVSDSSSSSSSSSSSSSSGPPLPLPSVSQSHHLFSSILPSTRASVHLLKSTSDASTPWSSSPSPLPVSLTTSTSAPLSVSQTTLPQSSSTPVLPRARETPVTSFQTSTMTSFMTMLHSSQTADLKSQSTPHQEKVITESKSPSLVSLPTESTKAVTTNSPLPPSLTESSTEQTLPATSTNLAQMSPTFTTTILKTSQPLMTTPGTLSSTASLVTGPIAVQTTAGKQLSLTHPEILVPQISTEGGISTERNRVIVDATTGLIPLTSVPTSAKEMTTKLGVTAEYSPASRSLGTSPSPQTTVVSTAEDLAPKSATFAVQSSTQSPTTVSSSASVNSCAVNPCLHNGECVADNTSRGYHCRCPPSWQGDDCSVDVNECLSNPCPSTAMCNNTQGSFICKCPVGYQLEKGICNLVRTFVTEFKLKRTFLNTTVEKHSDLQEVENEITKTLNMCFSALPSYIRSTVHASRESNAVVISLQTTFSLASNVTLFDLADRMQKCVNSCKSSAEVCQLLGSQRRIFRAGSLCKRKSPECDKDTSICTDLDGVALCQCKSGYFQFNKMDHSCRACEDGYRLENETCMSCPFGLGGLNCGNPYQLITVVIAAAGGGLLLILGIALIVTCCRKNKNDISKLIFKSGDFQMSPYAEYPKNPRSQEWGREAIEMHENGSTKNLLQMTDVYYSPTSVRNPELERNGLYPAYTGLPGSRHSCIFPGQYNPSFISDESRRRDYF
B2: Krev interaction trapped protein 1 (Homo sapiens), O00522 (parent)
chain: MGNPENIEDAYVAVIRPKNTASLNSREYRAKSYEILLHEVPIEGQKKKRKKVLLETKLQGNSEITQGILDYVVETTKPISPANQGIRGKRVVLMKKFPLDGEKMGREASLFIVPSVVKDNTKYTYTPGCPIFYCLQDIMRVCSESSTHFATLTARMLIALDKWLDERHAQSHFIPALFRPSPLERIKTNVINPAYATESGQTENSLHMGYSALEIKSKMLALEKADTCIYNPLFGSDLQYTNRVDKVVINPYFGLGAPDYSKIQIPKQEKWQRSMSSVTEDKERQWVDDFPLHRSACEGDSELLSRLLSERFSVNQLDSDHWAPIHYACWYGKVEATRILLEKGKCNPNLLNGQLSSPLHFAAGGGHAEIVQILLNHPETDRHITDQQGRSPLNICEENKQNNWEEAAKLLKEAINKPYEKVRIYRMDGSYRSVELKHGNNTTVQQIMEGMRLSQETQQYFTIWICSENLSLQLKPYHKPLQHVRDWPEILAELTNLDPQRETPQLFLRRDVRLPLEVEKQIEDPLAILILFDEARYNLLKGFYTAPDAKLITLASLLLQIVYGNYESKKHKQGFLNEENLKSIVPVTKLKSKAPHWTNRILHEYKNLSTSEGVSKEMHHLQRMFLQNCWEIPTYGAAFFTGQIFTKASPSNHKVIPVYVGVNIKGLHLLNMETKALLISLKYGCFMWQLGDTDTCFQIHSMENKMSFIVHTKQAGLVVKLLMKLNGQLMPTERNS

In assay [1] the parent is B1. The settings on record: with krit1_human KRIT1, O00522.
The variants in assay [2] derive from B2. The conditions noted are these: with heg1_human HEG1, Q9ULI3.
In assay [3] the parent is B2. The conditions noted are these: with ccm2_human CCM2, Q9BSQ5.
Assay [4] covers variants of B2. The settings on record: with rap1a_mouse Rap1a.

Chain of ccm2_human CCM2, Q9BSQ5 (Q9BSQ5 whole entry): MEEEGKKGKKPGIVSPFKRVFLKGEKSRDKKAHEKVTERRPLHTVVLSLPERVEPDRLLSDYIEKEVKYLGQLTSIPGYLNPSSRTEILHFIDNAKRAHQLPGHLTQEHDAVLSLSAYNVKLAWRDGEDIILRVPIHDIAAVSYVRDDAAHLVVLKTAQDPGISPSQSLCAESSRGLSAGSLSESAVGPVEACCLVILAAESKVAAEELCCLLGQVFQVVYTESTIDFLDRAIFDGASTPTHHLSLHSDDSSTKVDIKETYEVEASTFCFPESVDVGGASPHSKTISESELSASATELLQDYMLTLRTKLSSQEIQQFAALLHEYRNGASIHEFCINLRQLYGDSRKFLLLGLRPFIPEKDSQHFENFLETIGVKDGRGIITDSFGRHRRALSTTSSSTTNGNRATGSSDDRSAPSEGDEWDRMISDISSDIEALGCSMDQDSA

Turning to N1367A;F1370A, in assay [1], the “effect of a mutation on the interaction” value was “with no effect”. For L717A;L721A, the results for the “effect of a mutation on the interaction” value in assay [2], in assay [3] and in assay [4] were “decreasing interaction strength”, “with no effect” and “with no effect”, respectively. In the case of R452E, the “effect of a mutation on the interaction” value in assay [4] is reported as “disrupting interaction strength”.
